Laboratory results reported in PMC5802837, “Lymphocyte-specific protein 1 regulates mechanosensory oscillation of podosomes and actin isoform-based actomyosin symmetry breaking” (Nature Communications, 2018).

Tests used:
Experiment in all cases: co-IP; anti-GFP immunoprecipitation (µMACS anti-GFP Microbeads) from lysates of macrophages expressing GFP-fused constructs (500 mM NaCl, 2% Triton X-100, 50 mM Tris-HCl pH 8.0), washes with RIPA and high-salt RIPA; GFP alone as control; western blot of endogenous partners, densitometry
[1] = target: GFP-fused full length LSP1 (human) (UniProt P33241)
[2] = target: supervillin construct SV1-830-GFP (UniProt O46385)
[3] = target: T1, supervillin construct SV1-830-GFP (UniProt O46385-2 1-830); details: partners not purified
T1 construct: supervillin, N-terminal region, residues 1-830; as far as recalled the Luna laboratory constructs are bovine supervillin; also called GFP-SV1-830; GFP-supervillin 1-830; source: primary human macrophages, transfected, in lysate

## α-cardiac actin, endogenous (from UniProt P68032 1-377) (natural protein)
[1]
  coprecipitated α-cardiac actin relative to SV1-830-GFP: 0.33 fold

## Ser19 phosphorylated myosin light chain (pMLC), endogenous (from UniProt P24844 1-172) (natural protein)
[2]
  coprecipitated amount relative to LSP1-GFP: 9 fold

B1: myosin IIA, endogenous (natural protein, UniProt P35579 1-1960, looked up)
chain: MAQQAADKYLYVDKNFINNPLAQADWAAKKLVWVPSDKSGFEPASLKEEVGEEAIVELVENGKKVKVNKDDIQKMNPPKFSKVEDMAELTCLNEASVLHNLKERYYSGLIYTYSGLFCVVINPYKNLPIYSEEIVEMYKGKKRHEMPPHIYAITDTAYRSMMQDREDQSILCTGESGAGKTENTKKVIQYLAYVASSHKSKKDQGELERQLLQANPILEAFGNAKTVKNDNSSRFGKFIRINFDVNGYIVGANIETYLLEKSRAIRQAKEERTFHIFYYLLSGAGEHLKTDLLLEPYNKYRFLSNGHVTIPGQQDKDMFQETMEAMRIMGIPEEEQMGLLRVISGVLQLGNIVFKKERNTDQASMPDNTAAQKVSHLLGINVTDFTRGILTPRIKVGRDYVQKAQTKEQADFAIEALAKATYERMFRWLVLRINKALDKTKRQGASFIGILDIAGFEIFDLNSFEQLCINYTNEKLQQLFNHTMFILEQEEYQREGIEWNFIDFGLDLQPCIDLIEKPAGPPGILALLDEECWFPKATDKSFVEKVMQEQGTHPKFQKPKQLKDKADFCIIHYAGKVDYKADEWLMKNMDPLNDNIATLLHQSSDKFVSELWKDVDRIIGLDQVAGMSETALPGAFKTRKGMFRTVGQLYKEQLAKLMATLRNTNPNFVRCIIPNHEKKAGKLDPHLVLDQLRCNGVLEGIRICRQGFPNRVVFQEFRQRYEILTPNSIPKGFMDGKQACVLMIKALELDSNLYRIGQSKVFFRAGVLAHLEEERDLKITDVIIGFQACCRGYLARKAFAKRQQQLTAMKVLQRNCAAYLKLRNWQWWRLFTKVKPLLQVSRQEEEMMAKEEELVKVREKQLAAENRLTEMETLQSQLMAEKLQLQEQLQAETELCAEAEELRARLTAKKQELEEICHDLEARVEEEEERCQHLQAEKKKMQQNIQELEEQLEEEESARQKLQLEKVTTEAKLKKLEEEQIILEDQNCKLAKEKKLLEDRIAEFTTNLTEEEEKSKSLAKLKNKHEAMITDLEERLRREEKQRQELEKTRRKLEGDSTDLSDQIAELQAQIAELKMQLAKKEEELQAALARVEEEAAQKNMALKKIRELESQISELQEDLESERASRNKAEKQKRDLGEELEALKTELEDTLDSTAAQQELRSKREQEVNILKKTLEEEAKTHEAQIQEMRQKHSQAVEELAEQLEQTKRVKANLEKAKQTLENERGELANEVKVLLQGKGDSEHKRKKVEAQLQELQVKFNEGERVRTELADKVTKLQVELDNVTGLLSQSDSKSSKLTKDFSALESQLQDTQELLQEENRQKLSLSTKLKQVEDEKNSFREQLEEEEEAKHNLEKQIATLHAQVADMKKKMEDSVGCLETAEEVKRKLQKDLEGLSQRHEEKVAAYDKLEKTKTRLQQELDDLLVDLDHQRQSACNLEKKQKKFDQLLAEEKTISAKYAEERDRAEAEAREKETKALSLARALEEAMEQKAELERLNKQFRTEMEDLMSSKDDVGKSVHELEKSKRALEQQVEEMKTQLEELEDELQATEDAKLRLEVNLQAMKAQFERDLQGRDEQSEEKKKQLVRQVREMEAELEDERKQRSMAVAARKKLEMDLKDLEAHIDSANKNRDEAIKQLRKLQAQMKDCMRELDDTRASREEILAQAKENEKKLKSMEAEMIQLQEELAAAERAKRQAQQERDELADEIANSSGKGALALEEKRRLEARIAQLEEELEEEQGNTELINDRLKKANLQIDQINTDLNLERSHAQKNENARQQLERQNKELKVKLQEMEGTVKSKYKASITALEAKIAQLEEQLDNETKERQAACKQVRRTEKKLKDVLLQVDDERRNAEQYKDQADKASTRLKQLKRQLEEAEEEAQRANASRRKLQRELEDATETADAMNREVSSLKNKLRRGDLPFVVPRRMARKGAGDGSDEEVDGKADGAEAKPAE
notes: non-muscle myosin IIA heavy chain, human, precipitated and detected with anti-myosin IIA antibodies; also called non-muscle myosin IIA; source: endogenous, primary human macrophages (lysate or fixed cells)
[3]
  coprecipitated amount relative to LSP1-GFP: 1.6 fold
